The record followed here is the RNAGym collection of RNA variant scans (doi:10.7554/elife.80360).

B1: HDV Ribozyme (parent)
chain: GGCCGGCAUGGUCCCAGCCUCCUCGCUGGCGCCGGCUGGGCAACAUUCCGAGGGGACCGUCCCCUCGGUAAUGGCGAAUGGGACCCA

The variants in the series derive from B1. The series can be described thus: self-cleavage, relative activity (ratio to wild type); higher = more cleavage; co-transcriptional.
For GGCCGGCAUGGUCCCAGCCUCCUCGCUGGCGCCGGCUGGGCAACAUUCCGAGGGGACCGUCCCCUCGGUAUUGCCGAAUGGGACCCA [A71U G74C], the self-cleavage was found to be 0.244. The same measure for GGCCGGCAUGGUCCCAGCCUCCUCGCUGGCGCCGGCUGGGCGACAUUCCGAGGGGACCGUCCCCUCGGUAAUGGCGAAUGGGACCCU [A42G A87U]: 0.479; for GGCCGACAUGGUCCCAGCCUCCUCGCUGGCGCCGGCUGGGCAACAUUCCGAGGGGACCGUCCCCUCGGUAAUGGAGAAUGGGACCCA [G6A C75A]: 0.17. Consider GGCCGGCAUGGUCCCAGCCUCCUCGCUGGCGCCGGCUGCGCAACAUUCCGAGGGGACCGUCCACUCGGUAAUGGCGAAUGGGACCCA [G39C C63A], for which the self-cleavage turned out to be 0.259. The same measure for CGCCGGCAUGGUCCCAGCCUCCUCGCUGGCGCCGGCUGGGCAACAUUCCGAGGGGACCGUCCCCUGGGUAAUGGCGAAUGGGACCCA [G1C C66G]: 0.128; for GGCCGGCAUGGUCCCAGCCUCCUCGCUGGCGCGGGCUGGGCAACAUUCCGAGGGGGCCGUCCCCUCGGUAAUGGCGAAUGGGACCCA [C33G A56G]: 0.222. Turning to GGCCGGCAUGGUCCCAGCCUCCUCGCUGGCGCCGGCUGGGCAAAAUUCCGAGGGGACCGUCCCCUCGGUAAUGGCGAAUGGGAACCA [C44A C84A], the self-cleavage amounted to 0.541. Regarding GGCCGGCAUGGUCCCAGCCUCCUCGCUGGCGCCGGCUGGGCAACAUUCCGAGGGGACCGUCCACUCGGAAAUGGCGAAUGGGACCCA [C63A U69A], the self-cleavage is 0.965. Next, GGCCGGCAUGGUCCCAGCCUCCUCGCUGGCUCCGGCUGGGCAACAUUCCGAGGGGACCGUCUCCUCGGUAAUGGCGAAUGGGACCCA [G31U C62U]: 0.404; GGCCGGCAUGGUCCCAGCCUCCUCGCUGGCGCCGGCUGGGCAACAUUCCGAUGGGACCGUCCCCUCGGUAAUGGCUAAUGGGACCCA [G52U G76U]: 1.05; GGCCGGCAUGGUCCCAGCCUCCUCGCUGGCGCCGGCUGGGGAACAUUCCGAGGGGACCGUCGCCUCGGUAAUGGCGAAUGGGACCCA [C41G C62G]: 0.252. On to GGCCGGCAUGGUCCCAGCUUCCUCGCUGGCGCCGGCUGGGCAACAUUCCGAGGGGACCGUCCCCUCGAUAAUGGCGAAUGGGACCCA [C19U G68A], for which the self-cleavage was determined as 0.148.

In the case of GGCCGGCAUGGUCCCAGCCUCCUCGCUGGCGCCGGCUGGGCAACAUUCCGAGGGGACCGACCCCUCGGUAAUGGCGAACGGGACCCA [U60A U79C], the self-cleavage worked out at 0.515. On to GGCCGGCAUUGUCCCAGCCUCCUCGCUGGCGCCGGUUGGGCAACAUUCCGAGGGGACCGUCCCCUCGGUAAUGGCGAAUGGGACCCA [G10U C36U], for which the self-cleavage turned out to be 0.472. Turning to GGCCGGCAUGGUCCCAGCCUGCUCGCUGGCGCCGCCUGGGCAACAUUCCGAGGGGACCGUCCCCUCGGUAAUGGCGAAUGGGACCCA [C21G G35C], the self-cleavage stood at 0.178. As for GGCCGGCAUGGUCCCAGCCUCCUGGCUGGCGCCAGCUGGGCAACAUUCCGAGGGGACCGUCCCCUCGGUAAUGGCGAAUGGGACCCA [C24G G34A], the self-cleavage was 0.0332. Next, GGCCGGCAUGGCCCCAGCCUCCUCGCUGGCGCCGGCUGGGCGACAUUCCGAGGGGACCGUCCCCUCGGUAAUGGCGAAUGGGACCCA [U12C A42G]: 0.0831; GGCCGGCAUGGUCCCAGCCUCCUCGCUGGCGCCGGCUGGGCUACAUUCCGAGGGGACCGACCCCUCGGUAAUGGCGAAUGGGACCCA [A42U U60A]: 0.665; GGCCGGCAUGGUCCCAGCCUCCUCGCUGGCGCCGGCUGGGCAACAUUCCGAGGGGACCGUCCCCUCGGUAAUGGCGGCUGGGACCCA [A77G A78C]: 0.172. Take GGCCGGCAUGGUCCCAGCCUCCUCGCUGGCGCCGGCUGGGCAACAUUCCGAGGGAACCGUCCACUCGGUAAUGGCGAAUGGGACCCA [G55A C63A]: the self-cleavage was determined as 1.21. Next, GGCCGGCAUGGUCCCAGCCUCCUCGCUGGCGCCGGCUGGGCCACAUUCCGAGGGGACCGUCCCAUCGGUAAUGGCGAAUGGGACCCA [A42C C64A]: 0.212; GGCCGGCAUGGUCCCAGCCUCCUCGCUGUCGCCGGCUGGGCAACAUUCCGAGGGGACCGUCCCCUAGGUAAUGGCGAAUGGGACCCA [G29U C66A]: 0.201; GGCCGGCAUGGUCCCAGCCUCCUCGCUGGCGCCGGCUGGUCAACAUUCCGAGGGGACCGUCCCCUCGGUAAUGGCAAAUGGGACCCA [G40U G76A]: 0.789. GGCCGGCAUGGUCCCAGCUUCCUCGCUGGCGCCGGCUGGGCAACAUUCCGAGGGGACCGUCCCCUCGGUAAUGACGAAUGGGACCCA [C19U G74A]: the self-cleavage worked out at 0.0961. As for GGCCGGCAUGGUCCCAGCCUCCUCGCUGGCGCCGGCUGGGCAACAUUCCGAGGGUACCGUCCCCACGGUAAUGGCGAAUGGGACCCA [G55U U65A], the self-cleavage worked out at 0.891.

In the case of GGCCGGCAUGGUUCCAGCCUCCUCGCUGGCGCCGGCUGGGCAACAUUCCGAGGGGACCGUCCCCUCGGUAAUGGCGAAUGGGACCCA [C13U], the self-cleavage was found to be 0.683. With GGCCGGCAUGGUCCCAGCCUCCUCGCUGGCGCCGGCAGGGCAACAUUCCGAGGGGACCGUCCCCUCGGUAAUGGCGAAUGGGACUCA [U37A C85U], the self-cleavage stood at 0.259. Consider GGCCGGCAUGGUCACAGCCUCCUCGCUGGCGCCGGCUGGGCAACAUUCCGAGGGGACCGUCCCCUCGGUAAUGGCGAAAGGGACCCA [C14A U79A], for which the self-cleavage amounted to 0.369. As to GGCCGGCAUGAUCCCAGCCUCCUCGCUGGCGCCGGCUGGGCAACAUUCCGAGGGGACCGUCCCCUCGGUAAUGACGAAUGGGACCCA [G11A G74A], the self-cleavage amounted to 0.0769. Regarding GGACGGCAUGGUCCCAGCCUCCUCGCUGGCGCCGGCUGGACAACAUUCCGAGGGGACCGUCCCCUCGGUAAUGGCGAAUGGGACCCA [C3A G40A], the self-cleavage was determined as 0.412. Turning to GGCCGGCACGGUCCCAGCCUCCUCGCUGGCGCCGGCUGGGCAACAUUCCGAGGGGACCGUCCCCCCGGUAAUGGCGAAUGGGACCCA [U9C U65C], the self-cleavage was 1.22. As for GGCCGGCAUGGUCCCAGCCUCCUCGCUGGCGCCGGCUGGGCAACAUUCCGAGGGGACCGUCCCCGCGGUAAUGGCGAAGGGGACCCA [U65G U79G], the self-cleavage was determined as 1.2.
